The results in this text go back to patent US20080274950A1 (BABRAHAM INSTITUTE, published 2008).

Numbering of substitutions follows the chain as printed. Numbers in names are those of the source.

Data set [1] concerns the molecule itself. As to the kind of experiment: bead aggregation assay, 1.25 mM CaCl2. The procedure: (§1) Dynabeads (Dynal Biotech) coupled to Protein A were coated with N-cadherin Fc at 1 μg/ml in calcium and magnesium-free HBSS containing 0.1% Tween 20, 1% FCS and 4 mM EDTA. Eppendorf tubes containing beads and fusion protein were rotated slowly for 1 hour at room temperature to allow binding to take place. The beads were then washed in the above assay buffer lacking EDTA and then resuspended in the same buffer supplemented with 1.25 mM CaCl₂. Beads were allowed to aggregate in a volume of 100 μl for 2 hours at 37° C. by slow rotation, in an eppendorf tube, at approximately 20 rpm. Aggregation was then assessed by light microscopy.
In the experiments described so far in this example, disruption of the salt bridge prevented intramolecular docking of Trp 2 in one or both components of the dimer. In an alternative strategy to prevent intramolecular docking, we removed Trp2 by introducing the mutation W2G or blocked the hydrophobic acceptor pocket with an isoleucine side chain projecting into the cavity using the mutation A801. N-cadherin Fc fusion proteins with these mutations were then tested against our panel of K562 transfectants (FIG. 17a). In keeping with the explanation given in FIG. 5, the W2G mutant acted as a strand acceptor and therefore adhered strongly to the E89A mutant whereas the A80I mutant was a strand donor and adhered to the GG extension mutant. […] In contrast, beads coated with the W2G or A801 mutants and tested separately clustered in twos and threes, whereas beads coated with the negative control mutant, D134A, were entirely monodisperse. To test whether all five extracellular domains of N-cadherin (EC1-EC5) are necessary for the strong adhesive interaction between the complementary mutants, we compared the adhesive activity of the W2G mutant prepared as a full length (EC1-EC5) Fc fusion protein with that of the same mutant prepared as a truncated construct containing only cadherin domains EC1 and EC2.

The target in data set [2] is T1, full length chicken N-cadherin with the mutation E89A expressed on K562 cells (chicken, UniProt P10288 165-912, E89A).
T1 construct: whole, on cells; also called cells expressing the E89A mutation; K562 E89A
T1 sequence (looked up): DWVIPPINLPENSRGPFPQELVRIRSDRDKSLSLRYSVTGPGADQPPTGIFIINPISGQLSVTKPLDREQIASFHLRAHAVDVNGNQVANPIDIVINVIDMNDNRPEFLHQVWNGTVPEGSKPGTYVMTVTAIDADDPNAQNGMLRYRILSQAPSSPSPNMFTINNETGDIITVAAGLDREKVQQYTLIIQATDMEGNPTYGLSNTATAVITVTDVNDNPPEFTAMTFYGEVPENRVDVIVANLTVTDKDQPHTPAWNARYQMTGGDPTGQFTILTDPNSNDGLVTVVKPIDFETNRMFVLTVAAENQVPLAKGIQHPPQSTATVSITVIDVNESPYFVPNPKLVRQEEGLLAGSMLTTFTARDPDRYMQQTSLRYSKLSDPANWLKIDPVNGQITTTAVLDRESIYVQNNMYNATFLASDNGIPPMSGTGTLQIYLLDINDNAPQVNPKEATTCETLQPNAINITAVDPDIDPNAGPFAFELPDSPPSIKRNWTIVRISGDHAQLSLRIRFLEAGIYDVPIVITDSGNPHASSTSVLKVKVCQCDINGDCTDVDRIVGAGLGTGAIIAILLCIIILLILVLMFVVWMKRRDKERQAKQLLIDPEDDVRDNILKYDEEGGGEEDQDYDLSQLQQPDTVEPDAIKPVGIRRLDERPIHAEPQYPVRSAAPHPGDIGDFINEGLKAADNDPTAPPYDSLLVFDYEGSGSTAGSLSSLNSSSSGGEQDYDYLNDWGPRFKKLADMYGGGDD
As to the kind of experiment: adhesion of K562 transfectants to coated N-cadherin Fc. The procedure:
Adhesion tests were conducted substantially as described in Example 1. Briefly, K562 Cells or L cells transfected with wild type or mutant N-cadherin were allowed to settle for 45 minutes at 37° C. onto N-cadherin Fc fusion proteins coated at 1 μg/ml to a 96 well plate. Non-adherent cells were then washed off and residual adherent cells were quantitated by measuring acid phosphatase activity. Assays were conducted in quadruplicate and results are expressed as % cells adhering +/−SEM.

The target in data set [3] is T2, chicken N-cadherin Fc fusion protein with the pocket-blocking mutation A80I (chicken; human, UniProt P10288 165-728, A80I).
T2 construct: extracellular domain; also called A80I mutant; not shown: hinge region, CH2 and CH3 domains of human IgG1 heavy chain (vector pIgSig)
T2 sequence (looked up): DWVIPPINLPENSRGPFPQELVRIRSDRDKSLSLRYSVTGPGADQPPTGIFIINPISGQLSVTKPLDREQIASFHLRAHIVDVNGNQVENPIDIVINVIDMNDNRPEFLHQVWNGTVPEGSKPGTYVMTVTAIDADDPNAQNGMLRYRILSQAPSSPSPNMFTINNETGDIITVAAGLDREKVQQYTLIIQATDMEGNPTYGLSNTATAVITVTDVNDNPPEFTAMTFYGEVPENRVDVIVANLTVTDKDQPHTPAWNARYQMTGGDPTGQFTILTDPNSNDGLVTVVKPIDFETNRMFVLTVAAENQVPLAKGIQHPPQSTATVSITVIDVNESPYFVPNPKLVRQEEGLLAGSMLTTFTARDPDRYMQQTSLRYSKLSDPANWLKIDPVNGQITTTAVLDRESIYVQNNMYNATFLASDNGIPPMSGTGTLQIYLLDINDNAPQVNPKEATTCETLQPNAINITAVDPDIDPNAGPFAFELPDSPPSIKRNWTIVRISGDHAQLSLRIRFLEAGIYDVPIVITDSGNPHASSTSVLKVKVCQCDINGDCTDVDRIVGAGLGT
As to the kind of experiment: bead aggregation assay, Protein A Dynabeads coated separately and mixed, 1.25 mM CaCl2. The method, then:
as §1
In the experiments described so far in this example, disruption of the salt bridge prevented intramolecular docking of Trp 2 in one or both components of the dimer. In an alternative strategy to prevent intramolecular docking, we removed Trp2 by introducing the mutation W2G or blocked the hydrophobic acceptor pocket with an isoleucine side chain projecting into the cavity using the mutation A801. N-cadherin Fc fusion proteins with these mutations were then tested against our panel of K562 transfectants (FIG. 17a). In keeping with the explanation given in FIG. 5, the W2G mutant acted as a strand acceptor and therefore adhered strongly to the E89A mutant whereas the A80I mutant was a strand donor and adhered to the GG extension mutant. […]

Data set [4] concerns the molecule itself. Nature of the data set: gel filtration on Superdex-200, 1 mM CaCl2. The source says: Soluble N-cadherin-Fc fusion protein was obtained by transient transfection of Cos7 Cells as previously described (Corps et al., 2003). […] Soluble N-cadherin-Fc was routinely quantitated using an ELISA for Fc, standardised against purified cadherin-Fc fusion proteins.

B1: chicken N-cadherin-Fc fusion protein with the mutation W2G, dimeric (Fc fusion, UniProt P10288 165-728, looked up)
chain: T2 sequence (looked up) with W2G, I80A
notes: extracellular domain; Full length (EC1-EC5) Fc construct; also called W2G mutant; W2G protein; not shown: hinge region, CH2 and CH3 domains of human IgG1 heavy chain (vector pIgSig)
Regarding B1, the binding result in data set [1], in data set [2] and in data set [3] was “binds” throughout.

B2: monomeric chicken N-cadherin-Fc with the double mutation W2G,D134A (Fc fusion, UniProt P10288 165-728, looked up)
chain: T2 sequence (looked up) with W2G, I80A, D134A
notes: extracellular domain; also called the double mutant W2G,D134A; not shown: hinge region, CH2 and CH3 domains of human IgG1 heavy chain (vector pIgSig)
With B2, the binding result in data set [4] is “no binding”.
